The target of the assay is NY-ESO-1 peptide on HLA-A*02:01 (human). As to the kind of experiment: data from [38–40].

Broadly, the Kd is the equilibrium constant for the complex coming apart.

On to 1G4, for which the Kd was determined as 10 µM.

For the origin of these results see doi:10.1101/2024.06.27.600973.
